Earlier results, collected in PMC4125468.
Like-named read-outs stand apart in the source and are kept apart here.

Legend:
MD-2 (Homo sapiens) [1] = target: MD-2 (Homo sapiens) (UniProt Q9Y6Y9)
MD-2 (Homo sapiens) [2] = target: MD-2 (Homo sapiens) (UniProt Q9Y6Y9); experiment: radioligand binding
sCD14 (Homo sapiens) = sCD14 (Homo sapiens) (UniProt P08571)
Sequence of UniProt P08571 (P08571 20-345): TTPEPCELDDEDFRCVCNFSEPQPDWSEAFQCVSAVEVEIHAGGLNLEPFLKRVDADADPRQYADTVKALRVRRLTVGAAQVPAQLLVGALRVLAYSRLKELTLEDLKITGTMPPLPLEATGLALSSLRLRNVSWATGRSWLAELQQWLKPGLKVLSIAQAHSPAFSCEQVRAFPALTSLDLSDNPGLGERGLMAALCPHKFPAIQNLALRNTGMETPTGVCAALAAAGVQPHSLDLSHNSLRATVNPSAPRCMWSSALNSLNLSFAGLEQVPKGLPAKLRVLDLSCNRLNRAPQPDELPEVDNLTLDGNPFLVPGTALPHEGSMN

**Q.** Which Kd (MD-2 (Homo sapiens) [1]) does the source give for TLR4ECD ECD (from UniProt O00206) here?
**A.** 200 pM

**Q.** With TLR4 ECD (from UniProt O00206) as the substance, how does the Kd (MD-2 (Homo sapiens) [2]) read?
**A.** 500 pM

**Q.** With MD-2/TLR4ECD ECD (from UniProt Q9Y6Y9) as the substance, how does the Kd (sCD14 (Homo sapiens)) read?
**A.** 200 pM
